# Paper PMC2734569, “Functional mapping of the fission yeast DNA polymerase δ B-subunit Cdc1 by site-directed and random pentapeptide insertion mutagenesis” (BMC Molecular Biology, 2009)
# Residue numbers refer to the chain shown, from its start.
# T1: Cdc1-A8 (Schizosaccharomyces pombe, UniProt P87324 1-462, Pro374Ala)
# T1 construct: Cdc1, S. pombe, point mutant; source: yeast two-hybrid fusion, in S. cerevisiae CTY10-5d
# T1 sequence (looked up): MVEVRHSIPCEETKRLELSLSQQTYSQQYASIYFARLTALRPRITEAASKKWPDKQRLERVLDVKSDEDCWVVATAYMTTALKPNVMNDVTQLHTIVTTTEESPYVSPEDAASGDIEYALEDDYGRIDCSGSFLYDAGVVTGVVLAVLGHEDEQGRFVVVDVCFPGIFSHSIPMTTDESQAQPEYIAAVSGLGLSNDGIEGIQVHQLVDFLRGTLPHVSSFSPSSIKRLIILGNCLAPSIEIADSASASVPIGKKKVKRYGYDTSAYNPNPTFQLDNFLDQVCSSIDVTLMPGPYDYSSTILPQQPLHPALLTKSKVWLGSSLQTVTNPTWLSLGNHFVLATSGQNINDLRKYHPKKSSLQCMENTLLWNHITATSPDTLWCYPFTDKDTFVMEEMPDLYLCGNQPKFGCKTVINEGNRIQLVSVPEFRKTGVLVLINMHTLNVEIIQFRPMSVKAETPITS
# T2: Cdc1-E4 (Schizosaccharomyces pombe, UniProt P87324 1-462, Cys-GlyValProProCys-Glu)
# T2 construct: Cdc1, S. pombe, with a pentapeptide inserted after residue 10; source: yeast two-hybrid fusion, in S. cerevisiae CTY10-5d
# T2 sequence (looked up): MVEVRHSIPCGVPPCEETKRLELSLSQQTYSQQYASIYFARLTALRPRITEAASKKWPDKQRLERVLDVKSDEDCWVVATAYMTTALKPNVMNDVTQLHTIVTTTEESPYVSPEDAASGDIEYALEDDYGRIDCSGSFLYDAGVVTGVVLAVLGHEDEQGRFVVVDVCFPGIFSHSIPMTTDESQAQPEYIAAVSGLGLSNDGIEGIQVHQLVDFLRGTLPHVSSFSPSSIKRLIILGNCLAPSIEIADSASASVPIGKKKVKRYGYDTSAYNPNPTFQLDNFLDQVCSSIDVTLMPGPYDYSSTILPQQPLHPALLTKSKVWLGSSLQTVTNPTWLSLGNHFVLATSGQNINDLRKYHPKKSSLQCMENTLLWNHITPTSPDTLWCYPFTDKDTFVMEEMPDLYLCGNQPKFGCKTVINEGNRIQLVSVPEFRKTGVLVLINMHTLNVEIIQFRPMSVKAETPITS
# T3: Cdc1-A10 (Schizosaccharomyces pombe, UniProt P87324 1-462, Asn328Ala | Pro329Ala)
# T3 construct: Cdc1, S. pombe, double point mutant (A5 and A6 combined); source: yeast two-hybrid fusion, in S. cerevisiae CTY10-5d
# T3 sequence (looked up): T1 sequence (looked up) with N328A, P329A, A374P
# T4: Cdc1-J3 (Schizosaccharomyces pombe, UniProt P87324 1-462, Leu-GlyValProLeuLeu-Asp)
# T4 construct: Cdc1, S. pombe, with a pentapeptide inserted after residue 62; also called E3; E8; source: yeast two-hybrid fusion, in S. cerevisiae CTY10-5d
# T4 sequence (looked up): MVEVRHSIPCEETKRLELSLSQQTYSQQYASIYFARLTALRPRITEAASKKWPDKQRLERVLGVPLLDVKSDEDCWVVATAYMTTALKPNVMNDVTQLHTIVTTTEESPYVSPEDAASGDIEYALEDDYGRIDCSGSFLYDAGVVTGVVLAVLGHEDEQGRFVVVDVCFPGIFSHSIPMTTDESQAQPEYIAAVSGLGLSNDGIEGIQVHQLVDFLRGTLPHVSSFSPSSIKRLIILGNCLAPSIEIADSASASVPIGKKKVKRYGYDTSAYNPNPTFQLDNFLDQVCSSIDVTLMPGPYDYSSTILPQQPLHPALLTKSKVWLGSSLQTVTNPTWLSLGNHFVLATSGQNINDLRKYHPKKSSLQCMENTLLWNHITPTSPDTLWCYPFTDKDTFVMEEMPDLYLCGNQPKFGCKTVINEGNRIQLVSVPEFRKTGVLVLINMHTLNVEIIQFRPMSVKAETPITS
# B1: Pol3 (fission yeast DNA polymerase delta catalytic subunit) (natural protein, Schizosaccharomyces pombe, UniProt P30316 1-1086, looked up)
# chain: MTDRSSNEGVVLNKENYPFPRRNGSIHGEITDVKRRRLSERNGYGDKKGSSSKEKTSSFEDELAEYASQLDQDEIKSSKDQQWQRPALPAINPEKDDIYFQQIDSEEFTEGSVPSIRLFGVTDNGNSILVHVVGFLPYFYVKAPVGFRPEMLERFTQDLDATCNGGVIDHCIIEMKENLYGFQGNEKSPFIKIFTTNPRILSRARNVFERGEFNFEELFPVGVGVTTFESNTQYLLRFMIDCDVVGMNWIHLPASKYQFRYQNRVSNCQIEAWINYKDLISLPAEGQWSKMAPLRIMSFDIECAGRKGVFPDPSIDPVIQIASIVTQYGDSTPFVRNVFCVDTCSQIVGTQVYEFQNQAEMLSSWSKFVRDVDPDVLIGYNICNFDIPYLLDRAKSLRIHNFPLLGRIHNFFSVAKETTFSSKAYGTRESKTTSIPGRLQLDMLQVMQRDFKLRSYSLNAVCSQFLGEQKEDVHYSIITDLQNGTADSRRRLAIYCLKDAYLPQRLMDKLMCFVNYTEMARVTGVPFNFLLARGQQIKVISQLFRKALQHDLVVPNIRVNGTDEQYEGATVIEPIKGYYDTPIATLDFSSLYPSIMQAHNLCYTTLLDSNTAELLKLKQDVDYSVTPNGDYFVKPHVRKGLLPIILADLLNARKKAKADLKKETDPFKKAVLDGRQLALKVSANSVYGFTGATNGRLPCLAISSSVTSYGRQMIEKTKDVVEKRYRIENGYSHDAVVIYGDTDSVMVKFGVKTLPEAMKLGEEAANYVSDQFPNPIKLEFEKVYFPYLLISKKRYAGLFWTRTDTYDKMDSKGIETVRRDNCPLVSYVIDTALRKMLIDQDVEGAQLFTKKVISDLLQNKIDMSQLVITKALSKTDYAAKMAHVELAERMRKRDAGSAPAIGDRVAYVIIKGAQGDQFYMRSEDPIYVLENNIPIDAKYYLENQLSKPLLRIFEPILGEKASSLLHGDHTRTISMAAPSVGGIMKFAVKVETCLGCKAPIKKGKTALCENCLNRSAELYQRQVAQVNDLEVRFARLWTQCQRCQGSMHQDVICTSRDCPIFYMRIAEHKKLQQSVDLLKRFDEMSW
# notes: DNA polymerase delta catalytic subunit Pol3, S. pombe; prey plasmid named pACT-Pol3 in the results and pGAD2F-Pol3 in the methods; also called Gal4-Pol3; pACT-Pol3; source: yeast two-hybrid fusion, in S. cerevisiae CTY10-5d
# Key:
# Test in all cases: two-hybrid; LexA-Cdc1 bait (pBTM116 or pBTM116BN) with Gal4-Pol3 prey and co-expressed c-myc-tagged Cdc27 (pAA-Cdc27) in S. cerevisiae CTY10-5d; ONPG liquid culture beta-galactosidase assay, mean of triplicates, as percent of wild-type Cdc1
# Conditions in all cases: partners not purified
# Cdc1-A8 = target: T1, Cdc1-A8
# Cdc1-E4 = target: T2, Cdc1-E4
# Cdc1-A10 = target: T3, Cdc1-A10
# Cdc1-J3 = target: T4, Cdc1-J3
binder,measurement,setting,value
B1,"two-hybrid beta-galactosidase activity, % of wild-type Cdc1",Cdc1-A8,17%
same,"two-hybrid beta-galactosidase activity, % of wild-type Cdc1",Cdc1-E4,16%
same,"two-hybrid beta-galactosidase activity, % of wild-type Cdc1",Cdc1-A10,< 1%
same,"two-hybrid beta-galactosidase activity, % of wild-type Cdc1",Cdc1-J3,54%
